The source of these data is article PMC9772228, “Structure of a RecT/Redβ family recombinase in complex with a duplex intermediate of DNA annealing”.

In data set [1] the target is LiRecT (RecT/Redβ family recombinase from the A118 prophage of Listeria innocua) (Listeria innocua). The experiment in a line: native MS; free LiRecT without DNA at 30 µM, 100 mM ammonium acetate pH 7.
The target of data set [2] is T1, LiRecT WT (Listeria innocua CLIP 11262, UniProt Q92FL9 1-271).
T1 sequence: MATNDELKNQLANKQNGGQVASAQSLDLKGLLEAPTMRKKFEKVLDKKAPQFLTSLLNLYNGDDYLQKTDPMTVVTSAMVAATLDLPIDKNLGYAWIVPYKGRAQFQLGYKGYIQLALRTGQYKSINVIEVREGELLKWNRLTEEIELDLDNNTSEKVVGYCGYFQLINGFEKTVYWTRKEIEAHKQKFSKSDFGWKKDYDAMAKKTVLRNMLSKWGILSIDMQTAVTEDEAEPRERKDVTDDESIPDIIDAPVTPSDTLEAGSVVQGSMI
The experiment in a line: native MS; 15 LiRecT:2 DNA among species; EMSA: PBS pH 7.4 (or KH2PO4/10 mM MgCl2 pH 6.0), 3.6 or 5 uM protein, 25 uM nt DNA, 37 C 15 min per strand, 0.8% agarose 1x TBE; cryo-EM: 20 mM KH2PO4 (Results: 10 mM), 10 mM MgCl2 pH 6.0, 37 C; native MS: 100 mM ammonium acetate pH 7, 37 C. Conditions: protein: recombinant; tags: N-terminal 6His, thrombin-cleaved in main prep; chain copies: 10; single strand.

Data set [3] deals with T1, LiRecT WT. The experiment in a line: native MS; 17-18 LiRecT:1:1; EMSA: PBS pH 7.4 (or KH2PO4/10 mM MgCl2 pH 6.0), 3.6 or 5 uM protein, 25 uM nt DNA, 37 C 15 min per strand, 0.8% agarose 1x TBE; cryo-EM: 20 mM KH2PO4 (Results: 10 mM), 10 mM MgCl2 pH 6.0, 37 C; native MS: 100 mM ammonium acetate pH 7, 37 C. The conditions noted are these: protein: recombinant; tags: N-terminal 6His, thrombin-cleaved in main prep; chain copies: 10; blunt. For orientation: A gel shift assay detects complexes by their altered migration in electrophoresis.

In data set [4] the target is T1, LiRecT WT. The experiment in a line: cryo-EM; 10 mM MgCl2, pH 6.0; EMSA: PBS pH 7.4 (or KH2PO4/10 mM MgCl2 pH 6.0), 3.6 or 5 uM protein, 25 uM nt DNA, 37 C 15 min per strand, 0.8% agarose 1x TBE; cryo-EM: 20 mM KH2PO4 (Results: 10 mM), 10 mM MgCl2 pH 6.0, 37 C; native MS: 100 mM ammonium acetate pH 7, 37 C. Conditions: protein: recombinant; tags: N-terminal 6His, thrombin-cleaved in main prep; chain copies: 10; single strand.

Data set [5] addresses T1, LiRecT WT. As to the kind of experiment: native MS; 17 LiRecT:2 DNA among species; EMSA: PBS pH 7.4 (or KH2PO4/10 mM MgCl2 pH 6.0), 3.6 or 5 uM protein, 25 uM nt DNA, 37 C 15 min per strand, 0.8% agarose 1x TBE; cryo-EM: 20 mM KH2PO4 (Results: 10 mM), 10 mM MgCl2 pH 6.0, 37 C; native MS: 100 mM ammonium acetate pH 7, 37 C. The conditions noted are these: protein: recombinant; tags: N-terminal 6His, thrombin-cleaved in main prep; chain copies: 10; single strand.

Data set [6] concerns the target T1, LiRecT WT. As to the kind of experiment: EMSA; EMSA: PBS pH 7.4 (or KH2PO4/10 mM MgCl2 pH 6.0), 3.6 or 5 uM protein, 25 uM nt DNA, 37 C 15 min per strand, 0.8% agarose 1x TBE; cryo-EM: 20 mM KH2PO4 (Results: 10 mM), 10 mM MgCl2 pH 6.0, 37 C; native MS: 100 mM ammonium acetate pH 7, 37 C. The conditions noted are these: protein: recombinant, tags: N-terminal 6His, thrombin-cleaved in main prep, chain copies: 10, single strand.

The next data set addresses T2, λ-Redβ (bacteriophage lambda, UniProt P03698 1-261).
T2 sequence: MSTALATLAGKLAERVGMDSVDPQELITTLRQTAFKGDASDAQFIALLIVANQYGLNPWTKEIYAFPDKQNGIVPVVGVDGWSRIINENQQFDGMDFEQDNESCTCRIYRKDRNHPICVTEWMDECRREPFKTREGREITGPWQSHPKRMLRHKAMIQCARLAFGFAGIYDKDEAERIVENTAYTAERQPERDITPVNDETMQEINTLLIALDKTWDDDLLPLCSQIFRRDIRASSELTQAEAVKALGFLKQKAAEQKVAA
As to the kind of experiment: EMSA; sequential addition; EMSA: PBS pH 7.4 (or KH2PO4/10 mM MgCl2 pH 6.0), 3.6 or 5 uM protein, 25 uM nt DNA, 37 C 15 min per strand, 0.8% agarose 1x TBE; cryo-EM: 20 mM KH2PO4 (Results: 10 mM), 10 mM MgCl2 pH 6.0, 37 C; native MS: 100 mM ammonium acetate pH 7, 37 C. The conditions noted are these: protein: recombinant; label: 5'-Cy3;5'-Cy5; 49 bp, 1 nt 5' overhang at each end.

Data set [7] deals with T1, LiRecT WT. The data set is described as above. Conditions: protein: recombinant; tags: N-terminal 6His, thrombin-cleaved in main prep; chain copies: 10; label: 5'-Cy3;5'-Cy5; 49 bp, 1 nt 5' overhang at each end.
The target in data set [8] is T1, LiRecT WT. The experiment in a line: native MS; 16 LiRecT:1 DNA among species; EMSA: PBS pH 7.4 (or KH2PO4/10 mM MgCl2 pH 6.0), 3.6 or 5 uM protein, 25 uM nt DNA, 37 C 15 min per strand, 0.8% agarose 1x TBE; cryo-EM: 20 mM KH2PO4 (Results: 10 mM), 10 mM MgCl2 pH 6.0, 37 C; native MS: 100 mM ammonium acetate pH 7, 37 C. The conditions noted are these: protein: recombinant; tags: N-terminal 6His, thrombin-cleaved in main prep; chain copies: 10; single strand.

The target in data set [9] is T1, LiRecT WT. The experiment in a line: native MS; 1-2 fewer subunits than 83-mer complex; EMSA: PBS pH 7.4 (or KH2PO4/10 mM MgCl2 pH 6.0), 3.6 or 5 uM protein, 25 uM nt DNA, 37 C 15 min per strand, 0.8% agarose 1x TBE; cryo-EM: 20 mM KH2PO4 (Results: 10 mM), 10 mM MgCl2 pH 6.0, 37 C; native MS: 100 mM ammonium acetate pH 7, 37 C. Conditions: protein: recombinant; tags: N-terminal 6His, thrombin-cleaved in main prep; chain copies: 10; blunt.

The target in data set [10] is T1, LiRecT WT. As to the kind of experiment: native MS; 17 LiRecT:1:1; EMSA: PBS pH 7.4 (or KH2PO4/10 mM MgCl2 pH 6.0), 3.6 or 5 uM protein, 25 uM nt DNA, 37 C 15 min per strand, 0.8% agarose 1x TBE; cryo-EM: 20 mM KH2PO4 (Results: 10 mM), 10 mM MgCl2 pH 6.0, 37 C; native MS: 100 mM ammonium acetate pH 7, 37 C. The conditions noted are these: protein: recombinant; tags: N-terminal 6His, thrombin-cleaved in main prep; chain copies: 10; blunt.

One may read the stoichiometry N as a count of units in the complex or per binding partner.

As to “LiRecT (RecT/Redβ family recombinase from the A118 prophage of Listeria innocua) (natural protein)”, the stoichiometry N in data set [1] was less than 9.

B1: 75+ (ssDNA)
DNA: TTGATAAGAGGTCATTTTTGCGGATGGCTTAGAGCTTAATTGCTGAATCTGGTGCTGTAGCTCAACATGTTTTAA
Regarding B1, the binding result with LiRecT WT [2] is on record as “binds”.

B2: 83-/83+ annealed duplex (sequential) (dsDNA)
DNA 1: TTGCATATTTAAAACATGTTGAGCTACAGCACCAGATTCAGCAATTAAGCTCTAAGCCATCCGCAAAAATGACCTCTTATCAA
DNA 2: TTGATAAGAGGTCATTTTTGCGGATGGCTTAGAGCTTAATTGCTGAATCTGGTGCTGTAGCTCAACATGTTTTAAATATGCAA
With B2, the binding result in the data set with LiRecT WT [3] is recorded as “binds”.

B3: 83- (ssDNA)
DNA: TTGCATATTTAAAACATGTTGAGCTACAGCACCAGATTCAGCAATTAAGCTCTAAGCCATCCGCAAAAATGACCTCTTATCAA
As for B3, the binding result in the data set with LiRecT WT [4] is reported as “binds”.

B4: 83+ (ssDNA)
DNA: TTGATAAGAGGTCATTTTTGCGGATGGCTTAGAGCTTAATTGCTGAATCTGGTGCTGTAGCTCAACATGTTTTAAATATGCAA
In the case of B4, the binding result with LiRecT WT [5] is on record as “binds”. For the molecule GCGGATGGCTTAGAGCAGAATCGCCCTGCATAGCTCGATTTTTGCGGATG (ssDNA) [Cy3-50mer], the binding result with LiRecT WT [6] (label: 5'-Cy3) is given as “binds”. On to CCATCCGCAAAAATCGAGCTATGCAGGGCGATTCTGCTCTAAGCCATCCG (ssDNA) [Cy5-50mer], for which the binding result in the data set with LiRecT WT [6] (label: 5'-Cy5) is “binds”.

B5: 50-mer duplex intermediate (sequential addition) (dsDNA)
DNA 1: GCGGATGGCTTAGAGCAGAATCGCCCTGCATAGCTCGATTTTTGCGGATG
DNA 2: CCATCCGCAAAAATCGAGCTATGCAGGGCGATTCTGCTCTAAGCCATCCG
Consider B5, for which the binding result with λ-Redβ and in the data set with LiRecT WT [7] was “binds” each time.

B6: 75- (ssDNA)
DNA: TTAAAACATGTTGAGCTACAGCACCAGATTCAGCAATTAAGCTCTAAGCCATCCGCAAAAATGACCTCTTATCAA
For the molecule B6, in the data set with LiRecT WT [8], the binding result is “binds”.

B7: 75-/75+ annealed duplex (sequential) (dsDNA)
DNA 1: TTAAAACATGTTGAGCTACAGCACCAGATTCAGCAATTAAGCTCTAAGCCATCCGCAAAAATGACCTCTTATCAA
DNA 2: TTGATAAGAGGTCATTTTTGCGGATGGCTTAGAGCTTAATTGCTGAATCTGGTGCTGTAGCTCAACATGTTTTAA
With B7, the binding result in the data set with LiRecT WT [9] is listed as “binds”.

B8: 80-/80+ annealed duplex (sequential) (dsDNA)
DNA 1: CATATTTAAAACATGTTGAGCTACAGCACCAGATTCAGCAATTAAGCTCTAAGCCATCCGCAAAAATGACCTCTTATCAA
DNA 2: TTGATAAGAGGTCATTTTTGCGGATGGCTTAGAGCTTAATTGCTGAATCTGGTGCTGTAGCTCAACATGTTTTAAATATG
For the molecule B8, in the data set with LiRecT WT [10], the binding result is “binds”.

B9: 80+ (ssDNA)
DNA: TTGATAAGAGGTCATTTTTGCGGATGGCTTAGAGCTTAATTGCTGAATCTGGTGCTGTAGCTCAACATGTTTTAAATATG
As for B9, the binding result with LiRecT WT [5] is “binds”.

B10: 80- (ssDNA)
DNA: CATATTTAAAACATGTTGAGCTACAGCACCAGATTCAGCAATTAAGCTCTAAGCCATCCGCAAAAATGACCTCTTATCAA
In the case of B10, in the data set with LiRecT WT [5], the binding result was “binds”.
